To fix the notation:
B1: Myocilin, Q99972 (parent)
chain: MRFFCARCCSFGPEMPAVQLLLLACLVWDVGARTAQLRKANDQSGRCQYTFSVASPNESSCPEQSQAMSVIHNLQRDSSTQRLDLEATKARLSSLESLLHQLTLDQAARPQETQEGLQRELGTLRRERDQLETQTRELETAYSNLLRDKSVLEEEKKRLRQENENLARRLESSSQEVARLRRGQCPQTRDTARAVPPGSREVSTWNLDTLAFQELKSELTEVPASRILKESPSGYLRSGEGDTGCGELVWVGEPLTLRTAETITGKYGVWMRDPKPTYPYTQETTWRIDTVGTDVRQVFEYDLISQFMQGYPSKVHILPRPLESTGAVVYSGSLYFQGAESRTVIRYELNTETVKAEKEIPGAGYHGQFPYSWGGYTDIDLAVDEAGLWVIYSTDEAKGAIVLSKLNPENLELEQTWETNIRKQSVANAFIICGTLYTVSSYTSADATVNFAYDTGTGISKTLTIPFKNRYKYSSMIDYNPLEKKLFAWDNLNMVTYDIKLSKM

Variants of B1 are the subject of this data set. Conditions: Homo sapiens, pH 6, Thermal, CD, Sodium acetate 10mM, reversible: no, structure 4WXQ, whole UniProt chain shown.

6 variants from FireProtDB (doi:10.1074/jbc.m112.408906) can be followed below.

One may read the Tm as the temperature at the midpoint of the melting transition. As to MRFFCARCCSFGPEMPAVQLLLLACLVWDVGARTAQLRKANDQSGRCQYTFSVASPNESSCPEQSQAMSVIHNLQRDSSTQRLDLEATKARLSSLESLLHQLTLDQAARPQETQEGLQRELGTLRRERDQLETQTRELETAYSNLLRDKSVLEEEKKRLRQENENLARRLESSSQEVARLRRGQCPQTRDTARAVPPGSREVSTWNLDTLAFQELKSELTEVPASRILKESPSGYLRSGEGDTGCGELVWVGEPLTLRTAETITGKYGVWMRDPKPTYPYTQETTWRIDTVGTDVRQVFEYDLISQFMQGYPSKVHILPRPLESTGAVVYSGSLYFQGAESRTVIRYELNTETVKAEKEIPGAGYHGQFPYSWGGYTDIDLAVDEAGLWVIYSTDEAKGAIVLSKLNPENLELEQTWETNIRKQSVANAFIICGTLYTVSSYTSADATVNFAYDTGTGISKTLTIPFKNRYKYSSMIDYNPLEKKLFAWDNLNMVTYDFKLSKM [I499F], for the setting “CaCl2 1mM”, the Tm turned out to be 42.8 °C and the “change of melting temperature, mutant - wild type (higher = more stable)” value (“change of melting temperature, mutant” below) is -10.2 °C. Moreover, under “CaCl2 10mM”, the Tm worked out at 50.4 °C and the “change of melting temperature, mutant” value was -9.2 °C.

MRFFCARCCSFGPEMPAVQLLLLACLVWDVGARTAQLRKANDQSGRCQYTFSVASPNESSCPEQSQAMSVIHNLQRDSSTQRLDLEATKARLSSLESLLHQLTLDQAARPQETQEGLQRELGTLRRERDQLETQTRELETAYSNLLRDKSVLEEEKKRLRQENENLARRLESSSQEVARLRRGQCPQTRDTARAVPPGSREVSTWNLDTLAFQELKSELTEVPASRILKESPSGYLRSGEGDTGCGELVWVGEPLTLRTAETITGKYGVWMRDPKPTYPYTQETTWRIDTVGTDVRQVFEYDLISQFMQGYPSKVHILPRPLESTGAVVYSGSLYFQGAESRTVIRYELNTETVKAEKEIPGAGYHGQFPYSWGGYTDIDLAVDEAGLWVIYSTDEAKGAIVLSKLNPENLELEQTWETNIRKQSVANAFIICGTLYTVSSYTSADATVNFAYDTGTGISKTLTIPFKNRYKYSSMIDYKPLEKKLFAWDNLNMVTYDIKLSKM [N480K]: under “CaCl2 1mM”, the Tm stood at 42.4 °C and the “change of melting temperature, mutant” value is -10.6 °C. In addition, under “CaCl2 10mM”, the Tm is 48.1 °C and the “change of melting temperature, mutant” value is -11.5 °C.

Turning to MRFFCARCCSFGPEMPAVQLLLLACLVWDVGARTAQLRKANDQSGRCQYTFSVASPNESSCPEQSQAMSVIHNLQRDSSTQRLDLEATKARLSSLESLLHQLTLDQAARPQETQEGLQRELGTLRRERDQLETQTRELETAYSNLLRDKSVLEEEKKRLRQENENLARRLESSSQEVARLRRGQCPQTRDTARAVPPGSREVSTWNLDTLAFQELKSELTEVPASRILKESPSGYLRSGEGDTGCGELVWVGEPLTLRTAETITGKYGVWMRDPKPTYPYTQETTWRIDTVGTDVRQVFEYDLISQFMQGYPSKVHILPRPLESTGAVVYSGSLYFQGAESRTVIRYELNTETVKAEKEIPGAGYHGQFPYSWGGYTDIDLAVDEAGLWVIYSTDEAKGAIVLSKLNPENLELEQTWETNIRKQSVANAFIICGTLYTVSSYTSADATVNFAYDTGTGISKTLTIPFKNRYKYSSMNDYNPLEKKLFAWDNLNMVTYDIKLSKM [I477N], where the note is “CaCl2 1mM”, the Tm came out at 37.7 °C and the “change of melting temperature, mutant” value was -15.3 °C.

With MRFFCARCCSFGPEMPAVQLLLLACLVWDVGARTAQLRKANDQSGRCQYTFSVASPNESSCPEQSQAMSVIHNLQRDSSTQRLDLEATKARLSSLESLLHQLTLDQAARPQETQEGLQRELGTLRRERDQLETQTRELETAYSNLLRDKSVLEEEKKRLRQENENLARRLESSSQEVARLRRGQCPQTRDTARAVPPGSREVSTWNLDTLAFQELKSELTEVPASRILKESPSGYLRSGEGDTGCGELVWVGEPLTLRTAETITGKYGVWMRDPKPTYPYTQETTWRIDTVGTDVRQVFEYDLISQFMQGYPSKVHILPRPLESTGAVVYSGSLYFQGAESRTVIRYELNTETVKAEKEIPGAGYHGQFPYSWGGYTDIDLAVDEAGLWVIYSTDEAKGAIVLSKLNPENLELEQTWETNIRKQSVANAFIICGTLYTVSSYTSADATVNFAYDTGTGISKTLTIPFKNRYKYSSMSDYNPLEKKLFAWDNLNMVTYDIKLSKM [I477S], the Tm is, setting by setting: (CaCl2 1mM) 39.7 °C; (CaCl2 10mM) 48.2 °C. Besides, the “change of melting temperature, mutant” value by setting is: (CaCl2 1mM) -13.3 °C; (CaCl2 10mM) -11.4 °C.

With MRFFCARCCSFGPEMPAVQLLLLACLVWDVGARTAQLRKANDQSGRCQYTFSVASPNESSCPEQSQAMSVIHNLQRDSSTQRLDLEATKARLSSLESLLHQLTLDQAARPQETQEGLQRELGTLRRERDQLETQTRELETAYSNLLRDKSVLEEEKKRLRQENENLARRLESSSQEVARLRRGQCPQTRDTARAVPPGSREVSTWNLDTLAFQELKSELTEVPASRILKESPSGYLRSGEGDTGCGELVWVGEPLTLRTAETITGKYGVWMRDPKPTYPYTQETTWRIDTVGTDVRQVFEYDLISQFMQGYPSKVHILPRPLESTGAVVYSGSLYFQGAESRTVIRYELNTETVKAEKEIPGAGYHGQFPYSWGGYTDIDLAVDEAGLWVIYSTDEAKGAIVLSKLNPENLELEQTWETNIRKQSVANAFIICGTLYTVSSYTSADATVNFAYDTGTGISKTLTIPFKNRYKYSSMIDYNPLEKKLFAWDNLNMVTYDIKLPKM [S502P], the Tm turned out to be 41 °C (CaCl2 1mM) and 49.9 °C (CaCl2 10mM). Besides, the “change of melting temperature, mutant” value runs as follows: (CaCl2 1mM) -12 °C; (CaCl2 10mM) -9.7 °C.

As for MRFFCARCCSFGPEMPAVQLLLLACLVWDVGARTAQLRKANDQSGRCQYTFSVASPNESSCPEQSQAMSVIHNLQRDSSTQRLDLEATKARLSSLESLLHQLTLDQAARPQETQEGLQRELGTLRRERDQLETQTRELETAYSNLLRDKSVLEEEKKRLRQENENLARRLESSSQEVARLRRGQCPQTRDTARAVPPGSREVSTWNLDTLAFQELKSELTEVPASRILKESPSGYLRSGEGDTGCGELVWVGEPLTLRTAETITGKYGVWMRDPKPTYPYTQETTWRIDTVGTDVRQVFEYDLISQFMQGYPSKVHILPRPLESTGAVVYSGSLYFQGAESRTVIRYELNTETVKAEKEIPGAGYHGQFPYSWGGYTDIDLAVDEAGLWVIYSTDEAKGAIVLSKLNPENLELEQTWETNIRKQSVANAFIICGTLYTVSSYTSADATVNFAYDTGTGISKTLTIPFKNRYKYSSMIDYNLLEKKLFAWDNLNMVTYDIKLSKM [P481L], under “CaCl2 1mM”, the Tm is 45.5 °C and the “change of melting temperature, mutant” value was -7.5 °C. Further, for the setting “CaCl2 10mM”, the Tm is 51.2 °C and the “change of melting temperature, mutant” value was -8.4 °C.
